# Experimental data as given in article PMC3736351 (2014).
# T1: GHRH receptor (spleen cells, 3- and 14-month old rats) (Rattus norvegicus, UniProt Q02644)
# T1 chain: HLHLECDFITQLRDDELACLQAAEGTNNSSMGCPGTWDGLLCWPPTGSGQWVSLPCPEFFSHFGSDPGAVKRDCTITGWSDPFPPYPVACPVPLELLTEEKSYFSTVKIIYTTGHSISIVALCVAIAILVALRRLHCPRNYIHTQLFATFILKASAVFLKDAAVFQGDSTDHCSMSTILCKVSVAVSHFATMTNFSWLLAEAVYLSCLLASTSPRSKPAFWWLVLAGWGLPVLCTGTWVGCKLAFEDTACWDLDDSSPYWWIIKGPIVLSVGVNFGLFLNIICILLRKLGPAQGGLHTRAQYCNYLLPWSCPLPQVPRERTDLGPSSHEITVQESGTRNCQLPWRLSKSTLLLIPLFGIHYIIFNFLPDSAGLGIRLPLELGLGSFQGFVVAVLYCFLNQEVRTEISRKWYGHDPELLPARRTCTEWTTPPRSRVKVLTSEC
# T2: GHRH receptor (thymus cells, 3- and 14-month old rats) (Rattus norvegicus, UniProt Q02644)
# T2 chain: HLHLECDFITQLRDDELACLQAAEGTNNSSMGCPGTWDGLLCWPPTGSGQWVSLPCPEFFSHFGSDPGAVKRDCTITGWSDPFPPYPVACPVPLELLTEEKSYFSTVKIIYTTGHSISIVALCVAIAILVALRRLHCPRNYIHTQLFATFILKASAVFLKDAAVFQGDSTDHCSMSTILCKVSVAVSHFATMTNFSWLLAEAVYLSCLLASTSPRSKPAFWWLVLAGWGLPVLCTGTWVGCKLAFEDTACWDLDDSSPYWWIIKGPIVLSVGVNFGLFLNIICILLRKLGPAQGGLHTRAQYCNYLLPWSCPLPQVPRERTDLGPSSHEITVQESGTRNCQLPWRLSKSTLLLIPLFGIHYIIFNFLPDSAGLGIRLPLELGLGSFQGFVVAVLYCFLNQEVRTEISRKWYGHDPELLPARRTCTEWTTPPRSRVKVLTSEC
# Key:
# [1] = target: T1, GHRH receptor (spleen cells, 3- and …); experiment: homologous competitive radioligand binding
# [2] = target: T2, GHRH receptor (thymus cells, 3- and …); experiment: homologous competitive radioligand binding
binder,measurement,setting,value
MPLWVFFFVILTLSNSSHCSPPPPLTLRM [GHRH 1-29],Kd,[1],2 nM
same,Kd,[2],1 nM
